The values that follow come from paper PMC10907282 (Proceedings of the National Academy of Sciences of the …, 2024).

The target in the test is purified SOS3 (Arabidopsis thaliana, UniProt O81223 1-222). Briefly: other fluorescence titration.
Sequence of purified SOS3 (O81223 whole entry): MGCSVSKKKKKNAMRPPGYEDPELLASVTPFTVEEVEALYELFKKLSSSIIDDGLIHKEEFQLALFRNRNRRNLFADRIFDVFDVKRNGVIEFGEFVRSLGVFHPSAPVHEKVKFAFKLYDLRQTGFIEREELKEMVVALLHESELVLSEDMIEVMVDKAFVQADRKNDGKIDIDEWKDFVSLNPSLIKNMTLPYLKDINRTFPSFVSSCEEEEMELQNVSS

KKRILEYTKYEMLNKALRAFQDLGD (peptide, UniProt Q9LKW9 460-484, looked up) [synthetic peptide spanning the S3BD of SOS1, residues K460 to D484]: the binding result is “binds”.
